The record followed here is US20140199682A1.

pKd: −log10 of the molar value.

One assay has as its target hemagglutinin H3 A/Perth/16/2009 (influenza A virus H3). The experiment in a line: Biolayer Interferometry (ForteBio Octet), kinetic analysis, apparent affinity. In general terms: Biolayer interferometry detects binding as a change in optical thickness at a sensor tip.
Usually pKd stands for the Kd on a negative log10 scale, so that one unit is a factor of ten. As to C05 CDR1 variant G27c-A (antibody), the pKd was 7.48.
C05 CDR1 variant Y31F (antibody): the pKd was 8.17.
For C05 CDR1 variant F27b-A (antibody), the pKd is 6.34.
On to C05 CDR1 variant Y31L (antibody), for which the pKd is 6.25.
As to C05 CDR1 variant Y31A (antibody), the pKd is 6.26.
Still for that read-out and setting: for C05 CDR1 variant E27d-A (antibody) the value was 7.55; for C05 CDR1 variant del(FGEST) (antibody), 5.89.

For the next assay, the target named is hemagglutinin of H3N2 Hong Kong/68 (influenza A virus H3N2). The description is as above.
Regarding C05 CDR1 variant G27c-A (antibody), the negative logarithm of the Kd (pKd) was 6.35.
On to C05 CDR1 variant Y31F (antibody), for which the pKd was 6.38.
C05 CDR1 variant F27b-A (antibody): the pKd was 6.21.
In the case of C05 CDR1 variant Y31L (antibody), the pKd was 5.85.
Same read-out and setting: with C05 CDR1 variant Y31A (antibody) the figure was 6.19; with C05 CDR1 variant E27d-A (antibody), 6.27.
For C05 CDR1 variant del(FGEST) (antibody), the pKd is 6.16.
